Drawing on patent US20110124012A1, this text covers mean rlus for one substance.

In test [1] the target is human pro B-type natriuretic peptide (human). The experiment in a line: two-step sandwich chemiluminescent immunoassay ([..]); capture 8.1 on microparticles, acridinium-labeled 15C4; proBNP at 288.7 pM.
Test [2] shares this target. The experiment in a line: two-step sandwich chemiluminescent immunoassay ([..]); capture 8.1 on microparticles, acridinium-labeled 15C4; proBNP at 577.4 pM.
Test [3] addresses human B-type natriuretic peptide (human). The experiment in a line: two-step sandwich chemiluminescent immunoassay ([..]); capture 15F11 on microparticles, acridinium-labeled 15C4; BNP at 43.8 pM.
Test [4] shares this target. In words: two-step sandwich chemiluminescent immunoassay ([..]); capture 15F11 on microparticles, acridinium-labeled 15C4; BNP at 577.4 pM.
Test [5] shares this target. In words: two-step sandwich chemiluminescent immunoassay ([..]); capture 8.1 on microparticles, acridinium-labeled 15C4; BNP at 0 pM (blank).
The target of test [6] is human pro B-type natriuretic peptide (human). In words: two-step sandwich chemiluminescent immunoassay ([..]); capture 8.1 on microparticles, acridinium-labeled 15C4; proBNP at 43.8 pM.
Test [7] has as its target human B-type natriuretic peptide (human). In words: two-step sandwich chemiluminescent immunoassay ([..]); capture 8.1 on microparticles, acridinium-labeled 15C4; BNP at 288.7 pM.
The target is the same in test [8]. The experiment in a line: two-step sandwich chemiluminescent immunoassay ([..]); capture 8.1 on microparticles, acridinium-labeled 15C4; BNP at 43.8 pM.
Test [9] concerns the target human N-terminal-pro B-type natriuretic peptide (human). The experiment in a line: two-step sandwich chemiluminescent immunoassay ([..]); capture 15F11 on microparticles, acridinium-labeled 15C4; NT-proBNP at 43.8 pM.
For test [10], the target named is human B-type natriuretic peptide (human). The experiment in a line: two-step sandwich chemiluminescent immunoassay ([..]); capture 15F11 on microparticles, acridinium-labeled 15C4; BNP at 86.6 pM.
human B-type natriuretic peptide (human), sequence (peptide, as listed by the source): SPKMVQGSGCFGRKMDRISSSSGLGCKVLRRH
Test [11] concerns the target human N-terminal-pro B-type natriuretic peptide (human). The experiment in a line: two-step sandwich chemiluminescent immunoassay ([..]); capture 15F11 on microparticles, acridinium-labeled 15C4; NT-proBNP at 86.6 pM.
The target of test [12] is human B-type natriuretic peptide (human). In words: two-step sandwich chemiluminescent immunoassay ([..]); capture 15F11 on microparticles, acridinium-labeled 15C4; BNP at 0 pM (blank).
Test [13] concerns the target human pro B-type natriuretic peptide (human). The experiment in a line: two-step sandwich chemiluminescent immunoassay ([..]); capture 8.1 on microparticles, acridinium-labeled 15C4; proBNP at 86.6 pM.
In test [14] the target is human N-terminal-pro B-type natriuretic peptide (human). In words: two-step sandwich chemiluminescent immunoassay ([..]); capture 15F11 on microparticles, acridinium-labeled 15C4; NT-proBNP at 577.4 pM.
human N-terminal-pro B-type natriuretic peptide (human), sequence (chain, as listed by the source): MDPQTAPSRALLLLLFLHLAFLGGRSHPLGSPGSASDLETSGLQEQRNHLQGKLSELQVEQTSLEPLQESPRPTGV
Test [15] addresses human pro B-type natriuretic peptide (human). The experiment in a line: two-step sandwich chemiluminescent immunoassay ([..]); capture 8.1 on microparticles, acridinium-labeled 15C4; proBNP at 0 pM (blank).
Test [16] addresses human B-type natriuretic peptide (human). In words: two-step sandwich chemiluminescent immunoassay ([..]); capture 8.1 on microparticles, acridinium-labeled 15C4; BNP at 577.4 pM.
The target in test [17] is human N-terminal-pro B-type natriuretic peptide (human). The experiment in a line: two-step sandwich chemiluminescent immunoassay ([..]); capture 15F11 on microparticles, acridinium-labeled 15C4; NT-proBNP at 0 pM (blank).
The target in test [18] is human B-type natriuretic peptide (human). In words: two-step sandwich chemiluminescent immunoassay ([..]); capture 15F11 on microparticles, acridinium-labeled 15C4; BNP at 288.7 pM.
Test [19] concerns the target human N-terminal-pro B-type natriuretic peptide (human). In words: two-step sandwich chemiluminescent immunoassay ([..]); capture 15F11 on microparticles, acridinium-labeled 15C4; NT-proBNP at 288.7 pM.
The target in test [20] is human B-type natriuretic peptide (human). The experiment in a line: two-step sandwich chemiluminescent immunoassay ([..]); capture 8.1 on microparticles, acridinium-labeled 15C4; BNP at 86.6 pM.

human pro B-type natriuretic peptide (human), sequence (chain, as listed by the source): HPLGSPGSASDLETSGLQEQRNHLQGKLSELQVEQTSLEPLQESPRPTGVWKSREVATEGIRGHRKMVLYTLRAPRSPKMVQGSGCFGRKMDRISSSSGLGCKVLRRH

monoclonal antibody 15C4: the mean rlus in test [1] came out at 43000 RLU; in [2] it was 116000 RLU; in [3], 1040 RLU; in test [4], 1140 RLU; in test [5], 745 RLU; in test [6], 5480 RLU. Also, the mean rlus stood at 732 RLU in test [7]; 567 RLU in test [8]; 22400 RLU in test [9]; 1080 RLU in test [10]; 62700 RLU in [11]; 1200 RLU in test [12]. The mean rlus in test [13] worked out at 12000 RLU; in test [14] it was 658000 RLU; in [15] it was 659 RLU; in test [16], 701 RLU; in test [17], 1140 RLU; in test [18] it was 1130 RLU. Further, the mean rlus in test [19] came out at 317000 RLU; in test [20] it was 713 RLU.
